Laboratory results: US20230204576A1

Experiments:
[1] = molecular target: HLA A*03:01, labelled with Alexafluor 647 (human); test: microfluidic diffusional sizing, 25 nM HLA, non-linear binding fit
[2] = molecular target: HLA A*03:01, labelled with Alexafluor 647 (human); test: microfluidic diffusional sizing, global fit at 25 nM and 500 pM HLA

Kd [1]: 961 pM
binding site concentration B1 [1]: 13 nM
Kd [2]: 466 pM
Substance: antibody W6/32
